Experimental findings from patent US20250115677A1, “Anti-CEA Antibody Drug Conjugates and Methods of Use” (BeiGene Switzerland GmbH, priority 2022, published 2025) are described below.

The target in one test is T1, CEA variant (CEA-v) (human, UniProt P06731 35-687).
T1 construct: Splice-variant construct made by overlap PCR of CEA AA 1-78 and AA 398-687, C-terminal 6xHis; also called sCEA-v
T1 sequence: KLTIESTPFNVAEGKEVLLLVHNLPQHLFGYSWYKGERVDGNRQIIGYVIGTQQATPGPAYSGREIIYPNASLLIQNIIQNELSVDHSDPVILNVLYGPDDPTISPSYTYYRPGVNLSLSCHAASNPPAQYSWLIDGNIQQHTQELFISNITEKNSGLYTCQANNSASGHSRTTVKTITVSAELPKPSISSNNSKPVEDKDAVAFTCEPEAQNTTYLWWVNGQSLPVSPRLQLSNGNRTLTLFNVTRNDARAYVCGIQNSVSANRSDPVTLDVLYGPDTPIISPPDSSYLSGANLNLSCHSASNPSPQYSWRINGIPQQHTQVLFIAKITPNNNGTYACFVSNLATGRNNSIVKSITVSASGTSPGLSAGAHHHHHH
Description: SPR (BIAcore T-200); antibody captured by anti-murine IgG, antigen flowed. As for the experimental part:
(§1) Briefly, anti-murine IgG antibody was immobilized on an activated CM5 biosensor chip (Cat. No. BR100530, GE Life Sciences). Purified murine antibodies were flowed over the chip surface and captured by anti-murine IgG antibody. […] The equilibrium dissociation constant (KD) was calculated as the ratio koff/kₒₙ.
A general note: SPR reads the build-up and loss of mass on a sensor chip optically.

Test [1] deals with T2, chimeric construct (CHIM) (human).
T2 construct: CEACAM6 AA 1-273 joined to the membrane-peripheral region containing domain B3 of CEA (AA 596-687), C-terminal 6xHis; also called chimeric CEA
T2 chain: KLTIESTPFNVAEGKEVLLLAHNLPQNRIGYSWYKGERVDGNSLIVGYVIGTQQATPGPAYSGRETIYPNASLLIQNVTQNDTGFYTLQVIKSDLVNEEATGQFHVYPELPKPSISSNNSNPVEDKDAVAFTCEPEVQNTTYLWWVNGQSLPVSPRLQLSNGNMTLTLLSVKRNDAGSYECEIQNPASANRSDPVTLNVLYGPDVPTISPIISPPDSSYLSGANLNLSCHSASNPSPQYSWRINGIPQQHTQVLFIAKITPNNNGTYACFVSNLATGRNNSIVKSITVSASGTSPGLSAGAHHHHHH
The description is as above. On the procedure:
as §1

In test [2] the target is T3, human CEA on cells (MKN45, LOVO, NCI-H2122, LS174T, CT26/CEA) (human, UniProt P06731 35-685).
T3 sequence: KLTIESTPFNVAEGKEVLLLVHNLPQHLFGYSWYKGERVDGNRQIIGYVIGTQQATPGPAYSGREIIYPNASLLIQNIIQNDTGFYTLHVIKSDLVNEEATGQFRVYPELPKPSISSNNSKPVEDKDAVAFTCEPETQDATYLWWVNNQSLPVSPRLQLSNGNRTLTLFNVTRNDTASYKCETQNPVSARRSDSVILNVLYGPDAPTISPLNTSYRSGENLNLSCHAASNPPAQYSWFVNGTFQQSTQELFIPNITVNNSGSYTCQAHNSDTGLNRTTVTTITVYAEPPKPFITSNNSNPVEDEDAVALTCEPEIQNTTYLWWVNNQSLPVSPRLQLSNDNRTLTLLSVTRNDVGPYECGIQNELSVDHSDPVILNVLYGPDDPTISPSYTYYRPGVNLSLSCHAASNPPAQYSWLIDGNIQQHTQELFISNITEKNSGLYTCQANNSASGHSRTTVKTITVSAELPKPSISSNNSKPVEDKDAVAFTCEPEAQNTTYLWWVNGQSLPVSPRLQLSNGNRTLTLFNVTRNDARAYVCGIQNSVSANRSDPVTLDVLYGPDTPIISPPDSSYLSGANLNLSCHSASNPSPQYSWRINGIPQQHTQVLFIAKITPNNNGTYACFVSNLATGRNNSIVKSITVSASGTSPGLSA
Description: cell-based or functional assay.

The target in test [3] is T3, human CEA on cells (MKN45, LOVO, …). Description: flow cytometry on MKN45 cells. On the technique in general: In flow cytometry, cells or beads pass a laser one at a time.
For test [4], the target named is T4, recombinant soluble human CEA (extracellular domain, AA 1-687 of huCEA, C-terminal 6xHis) (human, UniProt P06731 35-687).
T4 construct: also called sCEA; soluble CEA
T4 sequence: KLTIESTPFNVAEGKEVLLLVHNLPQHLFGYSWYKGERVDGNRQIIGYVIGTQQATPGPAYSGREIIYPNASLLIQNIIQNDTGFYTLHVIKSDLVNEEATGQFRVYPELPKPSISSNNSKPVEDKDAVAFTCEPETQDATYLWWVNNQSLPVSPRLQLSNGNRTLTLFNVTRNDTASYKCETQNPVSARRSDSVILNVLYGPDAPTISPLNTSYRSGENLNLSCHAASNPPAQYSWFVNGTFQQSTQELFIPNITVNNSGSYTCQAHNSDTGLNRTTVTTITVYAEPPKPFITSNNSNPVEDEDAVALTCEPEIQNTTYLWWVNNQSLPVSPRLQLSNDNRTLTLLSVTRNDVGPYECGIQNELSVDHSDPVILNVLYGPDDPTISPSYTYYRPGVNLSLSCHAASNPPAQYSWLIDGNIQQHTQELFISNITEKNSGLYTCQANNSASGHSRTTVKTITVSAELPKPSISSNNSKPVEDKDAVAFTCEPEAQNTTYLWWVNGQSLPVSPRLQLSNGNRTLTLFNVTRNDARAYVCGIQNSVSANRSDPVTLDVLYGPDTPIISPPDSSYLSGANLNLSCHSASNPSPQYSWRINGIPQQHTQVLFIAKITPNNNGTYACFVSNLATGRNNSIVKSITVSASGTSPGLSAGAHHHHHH
The test is described as follows: SPR; kinetics on huCEA, IgG format.

Test [5] addresses T2, chimeric construct (CHIM). Description: SPR; binding to CHIM.
For test [6], the target named is T3, human CEA on cells (MKN45, LOVO, …). Description: flow cytometry on MKN45 cells, Alexa Fluor 647 anti-human IgG Fc. On the procedure: For flow cytometry, CEA-expressing MKN45 cells (10^5 cells/well) were incubated with various concentrations of purified affinity-matured antibodies, followed by binding with Alexa Fluor-647-labeled anti-hu IgG Fc antibody (Cat. No. 409320, BioLegend, USA). Cell fluorescence was quantified using a flow cytometer (Guava easyCyte™ 8HT, Merck-Millipore, USA).

In the next test the target is T5, CEA (Homo sapiens, UniProt P06731).
T5 sequence (P06731 35-676): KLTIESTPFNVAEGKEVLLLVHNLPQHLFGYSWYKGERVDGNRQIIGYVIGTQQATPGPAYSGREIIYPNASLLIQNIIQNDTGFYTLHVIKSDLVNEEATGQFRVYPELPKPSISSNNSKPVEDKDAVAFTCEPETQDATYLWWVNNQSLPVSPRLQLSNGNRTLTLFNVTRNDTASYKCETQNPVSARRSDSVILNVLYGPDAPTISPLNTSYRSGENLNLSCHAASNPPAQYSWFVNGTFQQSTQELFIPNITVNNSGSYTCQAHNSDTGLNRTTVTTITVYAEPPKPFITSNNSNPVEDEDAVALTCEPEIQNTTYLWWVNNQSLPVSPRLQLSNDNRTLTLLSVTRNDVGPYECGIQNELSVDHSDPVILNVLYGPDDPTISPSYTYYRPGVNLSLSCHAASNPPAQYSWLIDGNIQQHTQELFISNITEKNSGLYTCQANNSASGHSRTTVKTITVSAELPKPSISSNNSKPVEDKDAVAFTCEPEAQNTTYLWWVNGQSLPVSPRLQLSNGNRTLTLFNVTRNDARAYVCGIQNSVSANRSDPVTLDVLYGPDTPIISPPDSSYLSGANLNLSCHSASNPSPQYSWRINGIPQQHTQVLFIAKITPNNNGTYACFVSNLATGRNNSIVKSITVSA
Description: Binding of humanized and PTM-engineered BGA7592 variants compared to BGA7592-1. The text has this: Using BGA7592-1, an additional number of single or multiple amino acid changes were made, converting the human residues in framework regions of VH and VL to corresponding murine germline residues, which include V68A, R72A and V79A in VH and V43S in VL, respectively. This resulted BGA7592-2 (V68A, R72A in VH), BGA7592-3 (V79A in VH), BGA7592-4 (V68A, R72A, V79A in VH), BGA7592-5 (V43S in VL), BGA7592-6 (V68A, R72A in VH, and V43S in VL), BGA7592-7 (V79A in VH, V43S in VL) and BGA7592-8 (V68A, R72A, V79A, in VH and V43S in VL). All antibodies which contained modifications had similar binding activities to BGA7592-1, and none of the changes abolished binding.
In order to remove post-translational modification (PTM) sites, further engineering was made by introducing mutations in CDRs and framework regions based on the BGA75921 sequence, which include N52T, N54Q, N59S, N102G, N104Q and S61A amino acid changes in the VH region. […] While maintaining specificity, amino acid compositions and expression levels were also considered. All humanization mutations were made using primers containing mutations at specific positions and a site directed mutagenesis kit (Cat. FM 111-02, TransGen, Beijing, China). The desired mutations were verified by sequence analysis.

Where a chain is given by its changes, count along the chain named. Names and notes keep the numbering of the source.

B1: BGA7592 (antibody, V domains shown)
VH: QVQLQQSGAELAKSGASVKMSCKASGYIFTSYWLHWVKQRPGQGLEWIGYINPNTGYTNYSQKFKDKATLTADKSSSTAYMQLSSLTSEDSAVYYCAREYGNYNYPLDYWGQGTSVTVSS
VL: DIQMTQSPASLSASVGETVTITCRASENIYGYLAWYQQKQGKSPQLLVFNAKNLVEGVPSRFSGSGSGTQFSLKINSLQPEDFGSYYCQHHYGTPYTFGGGTKLEIK
notes: Murine monoclonal antibody purified from hybridoma supernatant; also called murine anti-CEA antibody BGA7592
By Kd is commonly meant a measure of binding affinity in units of concentration. On to B1, for which the Kd with CEA variant (CEA-v) was 150 nM; in test [1], 120 nM.

B2: BGA6710 (antibody, human IgG1, V domains shown)
VH: QVQLVQSGAEVKKPGASVKVSCKASGYIFTSYYLHWVRQAPGQGLEWIGYINPQTGYTSYAQKFQGRVTMTRDTSTSTVYMELSSLRSEDTAVYYCAREYGNYNYPLDYWGQGTLVTVSS
VL: DIQMTQSPSSLSASVGDRVTITCRASENQYGYLAWYQQKPGKVPKLLIYNYKNLVEGVPSRFSGSGSGTDFTLTISSLQPEDVATYYCQHHLGTPYTFGQGTKVEIK
notes: BGA2433 with W33Y (VH) and T51Y (VL); wild-type human IgG1 format
For orientation: EC50 means the concentration at which the effect is half-maximal. The koff is a measure of how fast the partners let go of each other. As usually defined, the kon is the rate constant with which the complex forms. As usually defined, the EC50 (read off the curve) is the midpoint of the concentration-response curve. High values mean lower potency in that assay, low ones higher potency in that assay. Consider B2, for which, in test [2], the “ADCC (LDH release), NK92MI/CD16V effector cells with CT26 cells expressing CEA, EC50” value is approximately 0.0067 µg/mL. In test [3], this molecule showed an EC50 of 0.49 µg/mL and a Top of 919. Moreover, in test [4], the Kd amounted to 1.49 nM, the koff amounted to 0.000169 s⁻¹ and the kon was determined as 113000 M⁻¹ s⁻¹. Also, in test [5], the affinity, expressed as Kd, was 15.1 nM; the koff worked out at 0.000475 s⁻¹; the kon is 31500 M⁻¹ s⁻¹. Besides, in test [6], the “EC50 (read off the curve)” value is approximately 0.5 µg/mL.

B3: BGA7592-1F: "BGA7592-1F (N54Q, N59S, S61 A (VH))"; humanized, "no glycosylation sites but had a high expression level" (antibody, V domains shown)
VH: B2 VH with Y33W
VL: B2 VL with Q29I, Y51A, L92Y
Regarding B3, the “binding affinities compared to BGA7592-1” value in the test with CEA is given as “significantly reduced binding affinities”.
